From patent US20200407442A1 (WUXI BIOLOGICS IRELAND, published 2020)
One block for each binder: values may come before it.

How the values were obtained:
Assay in all cases: FACS, 1 ug/mL antibody, transfected 293F cells
[1] = target: T1, full-length human LAG-3 on cells (human, UniProt P18627 23-525)
T1 construct: Expressed on Flp-In-293, CHO or 293F transfectants; also called hPro1.FL; cell surface human LAG-3
T1 sequence: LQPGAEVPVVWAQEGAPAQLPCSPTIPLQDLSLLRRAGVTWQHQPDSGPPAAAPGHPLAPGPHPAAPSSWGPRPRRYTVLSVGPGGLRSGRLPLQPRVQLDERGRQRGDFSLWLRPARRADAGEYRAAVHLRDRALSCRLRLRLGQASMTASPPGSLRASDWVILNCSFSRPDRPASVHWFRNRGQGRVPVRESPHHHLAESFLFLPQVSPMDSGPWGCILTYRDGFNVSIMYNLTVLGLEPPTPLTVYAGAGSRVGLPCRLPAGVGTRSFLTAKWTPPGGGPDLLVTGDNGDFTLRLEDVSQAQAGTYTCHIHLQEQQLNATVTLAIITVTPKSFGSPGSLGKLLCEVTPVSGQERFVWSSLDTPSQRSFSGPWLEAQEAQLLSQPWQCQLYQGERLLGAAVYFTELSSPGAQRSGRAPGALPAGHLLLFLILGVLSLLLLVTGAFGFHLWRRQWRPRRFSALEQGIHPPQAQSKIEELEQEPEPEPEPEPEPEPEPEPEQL
Experimental: (§1) The 10 variants were cloned into pcDNA3 vector and used for 293F cell transfection. Briefly, 293F cells were diluted to a density of 1×10⁶ cells/mL with FreeStyle 293F medium and aliquots of 3 mL/well were added to 24-well plate. Transfections were performed using 293fectin reagent (Life Technologies). For each transfection, 3 μg of DNA were diluted in 150 μOpti-MEM I-reduced serum medium (Life Technologies), and then combined with 6μL 293fectin reagent pre-diluted in 150 μL Opti-MEM I reduced serum medium. The DNA/[…] mixture was allowed to stand at 25° C. for 20 min before being added to the culture. The transfected cells were analyzed by flow cytometry at 48 h post-transfection.
(§2) Binding of antibodies to chimeric LAG-3 variants or full length human/mouse LAG-3 was analyzed by flow cytometry. Briefly, 1 μg/mL antibodies were incubated with chimeric LAG-3-expressing transfected 293F cells for 1 hour at 4° C., and then incubated with 3 μg/mL goat anti-human IgG Fc R-PE (Jackson) for 40 min at 4° C. Cells were analyzed with flow cytometer.

[2] = target: T2, Variant 6: xPro1.FL-x6 (human; mouse)
T2 construct: Chimeric full-length LAG-3 on transfected 293F cells
T2 chain: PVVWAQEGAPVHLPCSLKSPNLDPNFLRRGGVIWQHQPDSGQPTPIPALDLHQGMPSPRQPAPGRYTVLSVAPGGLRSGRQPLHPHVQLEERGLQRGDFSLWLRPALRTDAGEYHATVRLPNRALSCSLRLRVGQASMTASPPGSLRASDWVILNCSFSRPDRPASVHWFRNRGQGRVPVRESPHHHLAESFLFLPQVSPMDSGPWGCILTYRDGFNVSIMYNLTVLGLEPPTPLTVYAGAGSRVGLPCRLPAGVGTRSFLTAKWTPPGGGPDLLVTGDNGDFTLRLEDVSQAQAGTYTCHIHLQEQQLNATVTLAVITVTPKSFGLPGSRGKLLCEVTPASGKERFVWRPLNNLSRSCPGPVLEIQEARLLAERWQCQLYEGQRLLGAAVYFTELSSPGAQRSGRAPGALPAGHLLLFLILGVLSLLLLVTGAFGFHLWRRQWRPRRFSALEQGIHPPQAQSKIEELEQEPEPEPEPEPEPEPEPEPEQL
Experimental: as §1, §2

[3] = target: T3, Variant 5: xPro1.FL-x5 (human; mouse)
T3 construct: Chimeric full-length LAG-3 on transfected 293F cells
T3 chain: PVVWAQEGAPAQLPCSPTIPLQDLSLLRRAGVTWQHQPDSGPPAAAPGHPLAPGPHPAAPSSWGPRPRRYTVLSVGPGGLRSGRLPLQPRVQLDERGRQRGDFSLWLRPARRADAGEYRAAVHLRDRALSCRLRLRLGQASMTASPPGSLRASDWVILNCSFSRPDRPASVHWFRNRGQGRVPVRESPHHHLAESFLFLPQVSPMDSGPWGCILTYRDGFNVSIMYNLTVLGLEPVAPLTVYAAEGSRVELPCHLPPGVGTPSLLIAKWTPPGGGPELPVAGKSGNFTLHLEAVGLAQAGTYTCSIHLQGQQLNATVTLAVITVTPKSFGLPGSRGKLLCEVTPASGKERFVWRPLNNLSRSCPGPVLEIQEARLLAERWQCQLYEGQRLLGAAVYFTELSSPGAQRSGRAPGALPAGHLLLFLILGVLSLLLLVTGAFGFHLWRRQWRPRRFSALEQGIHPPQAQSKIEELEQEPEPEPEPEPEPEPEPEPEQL
Experimental: as §1, §2

[4] = target: T4, Variant 9: xPro1.FL-x9 (human; mouse)
T4 construct: Chimeric full-length LAG-3 on transfected 293F cells
T4 chain: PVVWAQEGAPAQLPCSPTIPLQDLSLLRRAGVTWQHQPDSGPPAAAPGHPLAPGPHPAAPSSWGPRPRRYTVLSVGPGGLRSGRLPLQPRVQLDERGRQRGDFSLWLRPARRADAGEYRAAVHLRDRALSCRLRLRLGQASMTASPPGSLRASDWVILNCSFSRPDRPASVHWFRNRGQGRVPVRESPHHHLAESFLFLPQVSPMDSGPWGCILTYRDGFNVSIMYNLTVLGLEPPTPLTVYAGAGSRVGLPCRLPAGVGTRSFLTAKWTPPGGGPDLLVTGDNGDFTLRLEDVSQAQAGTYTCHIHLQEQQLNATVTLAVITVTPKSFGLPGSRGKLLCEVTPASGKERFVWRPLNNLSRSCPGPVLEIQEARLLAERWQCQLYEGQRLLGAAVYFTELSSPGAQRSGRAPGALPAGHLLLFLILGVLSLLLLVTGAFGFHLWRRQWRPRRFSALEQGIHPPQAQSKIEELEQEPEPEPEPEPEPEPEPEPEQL
Experimental: as §1, §2

MFI [1]: 6520 | PE+ % [1]: 83.5% | MFI [2]: 44.1 | PE+ % [2]: 0.674% | MFI [3]: 7070 | PE+ % [3]: 75.9% | MFI [4]: 8320 | PE+ % [4]: 87.3%
B1: 3.40.19-uAb-IgG4L (antibody, V domains shown)
VH: QLQLQESGPGLVKPSETLSLTCTVSGDSISSTSYYWGWIRQPPGKGLEWIGSFYYSGSTYYNPSLKSRVTISVDTSKNQFSLKLNSVTAADTAVYYCARMQLWSYDVDVWGQGTTVTVSS
VL: QSALTQPASVSGSPGQSITISCTGTSSDVGGYDYVAWYQQHPGKVPKLMIYDVSERPSGVSNRFSGSKSGNTASLTISGLQAEDEADYYCSSYTSTTTLVVFGGGTKLSVL
notes: Fully human antibody from OMT rats; IgG4 lambda by its name; also called 3.40.19-uAb-hIgG4L

MFI [1]: 6540 | PE+ % [1]: 96.8% | MFI [2]: 59.9 | PE+ % [2]: 1.86% | MFI [3]: 6260 | PE+ % [3]: 97.1% | MFI [4]: 7030 | PE+ % [4]: 97.3%
B2: 1.53.3-uAb-IgG4k (antibody, V domains shown)
VH: QVQLQQWGAGLLKPSETLSLTCGVYGGSFSGYYWSWIRQPPGMGLEWIGEINHRGNTNYNPSLKSRVTISEDTSKNQFSLRLSSVTAADTAVYFCTRGEDYSDYDYYGDFWGQGTLVTVSS
VL: EIVLTQSPATLSLSQGERATLSCRASQSISSYLAWYQQKPGQAPRLLIYAASNRATGIPARFSGSGSGTDFTLTISSLEPEDFAIYYCQQRSNWPLTFGGGTKVEIK
notes: Fully human antibody from OMT rats; IgG4 kappa by its name
